In PMC10603098:

Assays:
[1] = target: GluA tetramers (sum of all co-purified GluA1-4 proteins divided by four) (rat (endogenous in rat brain)); experiment: affinity purification with mass spectrometry; multi-epitope AP-MS: three polyclonal anti-GSG1L antibodies on protein A Dynabeads, 2 h; membranes of adult (P59) rat brain solubilised in CL-47; GSG1L KO rats as negative control; minimum tnR of 0.25 as indicator of specific interaction
[2] = target: homomeric GluA2Q_(flip) AMPA receptor, wild type (rat) (UniProt P19491)
[3] = target: homomeric GluA2Q_(flip) E658K AMPA receptor (rat) (UniProt P19491)
[4] = target: GluA1 E651K/GluA2(R) AMPA receptor heteromer (rat) (UniProt P19490)
[5] = target: GluA1 E651K/GluA2(R) E658K AMPA receptor heteromer (rat) (UniProt P19490)
[6] = target: GluA1/GluA2(R) AMPA receptor heteromer, wild type (rat) (UniProt P19490)
[7] = target: GluA1/GluA2(R) E658K AMPA receptor heteromer (rat) (UniProt P19490)

Row | stoichiometry N (GSG1L per GluA tetramer) [1] | Substance | fast time constant of recovery from desensitization (τ (recovery), two-pulse protocol, 10 mM L-Glu, outside-out patches of HEK293T/17 cells co-expressing GluA2 and GSG1L) [2] | slow time constant of recovery from desensitization (τ (recovery), two-pulse protocol, 10 mM L-Glu, outside-out patches of HEK293T/17 cells co-expressing GluA2 and GSG1L) [2] | single time constant of recovery from desensitization of GluA2 E658K co-expressed with GSG1L (the mutation eliminated the ability of GSG1L to slow recovery) [3] | time constant of recovery from desensitization (mono-exponential) of heteromers with EK on GluA1 only, co-expressed with GSG1L [4] | single time constant of recovery from desensitization of heteromers with EK on both GluA1 and GluA2, co-expressed with GSG1L [5] | fast time constant of recovery from desensitization of GluA1/A2 heteromers co-expressed with GSG1L [6] | slow time constant of recovery from desensitization of GluA1/A2 heteromers co-expressed with GSG1L [6] | fast time constant of recovery from desensitization of heteromers with EK on GluA2 only, co-expressed with GSG1L [7] | slow time constant of recovery from desensitization of heteromers with EK on GluA2 only, co-expressed with GSG1L [7]
1 | 1.74 | germ cell-specific gene 1-like protein (GSG1L) (from UniProt D3ZK93 1-322) (natural protein) | – | – | – | – | – | – | – | – | –
2 | – | mouse GSG1L (co-expressed, +GSG1L) (from UniProt D3Z7H4 1-322) (natural protein) | 37.5 ms | 322 ms | 48 ms | 338 ms | 130 ms | 23.7 ms | 548 ms | 80.6 ms | 446 ms
